Reference: the nanobody polyreactivity screen of Harvey et al. (2022)

Test: yeast display, Sf9 membrane polyspecificity reagent, FACS + sequencing; frameworks hold sequencing errors
In short: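 Genes from sorted yeast were amplified by colony PCR, read by MiSeq 2 × 250 sequencing and filtered on CDR length. These cells carried a synthetic nanobody library in Saccharomyces cerevisiae BJ5465 and were sorted by FACS into low and high (top ~1%) gates on anti-HA and streptavidin fluorescence. Polyreactivity is labelled according to the gate of origin.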

Sequence | polyreactivity (PSR sort gate)
QVQLVESGGGLVQAGGSLRLSCAASGRIFGINAMGWYRQAPGKERALVAAISRSGSRTYYADSVKGRFTISRDNAKNTVYLQMNSLKPEDTAVYYCAAQKRVYDSVRSTDRYDYWGQGTQVTVSS | high polyreactivity
QVQLVESGGGLVQAGGSLRLSCAASGRIFGIYAMGWYRQAPGKERELVAAINSGDSTYADSVKGRFTISRDNAKNTVYLQMNSLKPEDTAVYYCAAEESTSSWSINDYWGQGTQVTVSS | low polyreactivity
QVQLVESGGGLVQAGGSLRLSCAASGRIFGIYAMGWYRQAPGKERELVAVITRGDRTYADSVKGRFTISRDNAKNTVYLQMNSLKTEDTAVYYCNADTGYRFDYWGQGTQVTVSS | high polyreactivity
QVQLVESGGGLVQAGGSLRLSCAASGRIFGKYALGWYRQAPGKERELVAAISGRGGRTYYADSVKGRFTISRDNAKNTVYLQMNSLKPEDTAVYYFANDPRGSRYDYWGQGTQVTVSS | high polyreactivity
QVQLVESGGGLVQAGGSLRLSCAASGRIFGKYTMGWYRQAPGKERELVAAISWGGGSTYYADSVKGRFTISRDNAKNTVYLQMNSLKPEDTAVYYCAADYYYYHTQEYDYWGQGTQVTVSS | high polyreactivity
QVQLVESGGGLVQAGGSLRLSCAASGRIFGKYVMGWYRQAPGKERELVAGISWSAGSTYYADSVKGRYTISRDNAKYTVYLQMNSLKPEDTAVYYCAAGLEGGYDYWGQGTQVTVSS | low polyreactivity
QVQLVESGGGLVQAGGSLRLSCAASGRIFGLNAMGWYRQAPGKEREFVAAITWRGGRTYYADSVKGRFTISRDNAKNTVYLQMNSLKPEDTAVYYCAADGGSTLDYYWGQGTQVTVSS | low polyreactivity
QVQLVESGGGLVQAGGSLRLSCAASGRIFGLYAMGWYRQAPGKEREFVAAINWDGGSTFYADSVKGRFTISRDNAKNTVYLQMNSLKPEDTAVYYCAADVYSYVSYSTYVSVFTYDYWGQGTQVTVSS | low polyreactivity
QVQLVESGGGLVQAGGSLRLSCAASGRIFGLYAMGWYRQAPGKERELVAAIRGRGGRTSYADSVKGRFTISRDNAKNTVYLQMNSLKPEDTAVYYCNAELYPWPGVVRYNYWGQGTQVTVSS | high polyreactivity
QVQLVESGGGLVQAGGSLRLSCAASGRIFGLYAMGWYRQAPGKERELVAAYADSVKGRFTISRDYAKNTVYLQMNSLKPEDTAVYYCAKGPLYAGYSIDLRDFNYWGQGTQVTVSS | low polyreactivity
QVQLVESGGGLVQAGGSLRLSCAASGRIFGLYTIGWYRQAPGKDREFVAGITYSAGRTYYADSVKGRFPISRDNAKNTVYLQMNSLKPEDTAVYYCAARIYSKFTSYGILDSWGQGTQVTVSS | high polyreactivity
QVQLVESGGGLVQAGGSLRLSCAASGRIFGNYAKGWYRQAPGKERELVAAISGGGSTYYADSVKGRFTISRDNAKNTVYLQMNSLKPEDTAVYYCAARFLSSVFGRKGGYWGQGTQVTVSS | low polyreactivity
QVQLVESGGGLVQAGGSLRLSCAASGRIFGNYAMGWYRQAPGKARELVAAITSGARTYYADSVKGRFTISRDNAKNTVYLQMNSLKPEDTAVYYCAAYHKSYSYRYDYWGQGTQVTVSS | high polyreactivity
QVQLVESGGGLVQAGGSLRLSCAASGRIFGPNAMGWYRQAPGKERELVAAISTSGGRTYYADSVKGRFTISRDNAKNTVYLQMNSLKPEDTAVYYCAADRSRWGQGTQVTVSS | high polyreactivity
QVQLVESGGGLVQAGGSLRLSCAASGRIFGPYAMGWYRQAPGKERELGASISGGGSTNYADSVKGRFTISRDNAKNTVYLPMNSVKPEDTAVYYCAADVYYQYWGWWPYDYWGQGTQVTVSS | low polyreactivity
QVQLVESGGGLVQAGGSLRLSCAASGRIFGPYAMGWYRQAPGKERELVASISYSGGSTYYADSVKGRFTISRDNAKNTVYLQMNSLKPEDTAVYYCAKGGYWRGYNYYYWGQGTQVTVSS | low polyreactivity
QVQLVESGGGLVQAGGSLRLSCAASGRIFGPYTMGWYRQAPGKERELVAAINGRGGSTYYADSVKGRFTISRDNAKNTVYLQMNSLKPEDTAVYYFNASPTWVYSRVYGYNYWGQGTQVTVSS | low polyreactivity
QVQLVESGGGLVQAGGSLRLSCAASGRIFGPYTMGWYRQAPGKERELVAGITKSGSSTYYADSVKGRFTISRDNAKNTVYLQMNSLKPEDTAVYYCAADVYQVRGYYWGQGTQVTLSS | high polyreactivity
QVQLVESGGGLVQAGGSLRLSCAASGRIFGPYVMGWYRQAPGKERELVAAINRRGGSTYYADSVKGRFTISRDNAKNTVYLQMNSLKPEDTAVYYCAAKKATVVYRMEYWGQGTQVTVSS | high polyreactivity
QVQLVESGGGLVQAGGSLRLSCAASGRIFGQNAMGWYRQAPGKERELVADITGSGGRTYYADSVKGRFTISRDNAKNTVYFQMNSLKPEDTAVYYCAVRVTSYYRTMVYWGQVTQVTVSS | low polyreactivity
QVQLVESGGGLVQAGGSLRLSCAASGRIFGQYAMGWYRQAPGKDRELVAAISWRGGTTYYADSVKGRFTISRDNAKNTVYLQMNSLKPEDTAVYYCNADVWVYPYDYWGQGTQVTVSS | low polyreactivity

Sequence | polyreactivity (PSR sort gate)
QVQLVESGGGLVQAGGSLRLSCAASGRIFGQYAMGWYRQAPGKERELVAAISWRGGTTYYADSVKGRFTISRDNAKNTVYLKMNSLKPVDTAVYYCNADVWVYPYDYWGQGTQVTVSS | low polyreactivity
QVQLVESGGGLVQAGGSLRLSCAASGRIFGQYAMGWYRQAPGKERELVASIRSGGSTNYADSVKGRFTISRDNAKNTVYLQMNSLKPADSAVYYCNRRSGRTSRFHDYGYWGQGTQVTVSS | high polyreactivity
QVQLVESGGGLVQAGGSLRLSCAASGRIFGRDMGWYRQAPGKERELVATITWRGGSTYYADSVKGRFTISRDNAKNTVYLQMNSLKPEDTAVYYCTAALSHDYWHYRLGYWGQGTQVTVSS | low polyreactivity
QVQLVESGGGLVQAGGSLRLSCAASGRIFGRNAMGWYRPAPGKERELVADISYRGGRPYYADSVKGRFTISRDNAKNTVYLQMNSLKPEDTAVYYCNAGVYRSGGRKYDYWGQGTQVTVSS | high polyreactivity
QVQLVESGGGLVQAGGSLRLSCAASGRIFGRNAMGWYRQAPGKEREFVAGITTNGGRTYYADSVKGRFTISRDYAKNSVFLQMNSLIPEDTAVYYWAAVRYYFLKYYYWGQGTQVTVSS | high polyreactivity
QVQLVESGGGLVQAGGSLRLSCAASGRIFGRNAMGWYRQAPGKEREFVARIRTSGGSTYYADSVKGRFTISRDNAKNTVYLQMISLTPEDTAVYYCAAAVYTSARGYDYWGQGTQVTVSS | high polyreactivity
QVQLVESGGGLVQAGGSLRLSCAASGRIFGRNAMGWYRQAPGKERELVAGISSGGTTDYADSVKGRFTISRDNAKNTVYLQMNSLKPEDTAVYYCNDGYAYDDQTYYLGESDYWGQGTQVTVSS | low polyreactivity
QVQLVESGGGLVQAGGSLRLSCAASGRIFGRNARGWYRQAPGKEREFVAAISGNGGSTYYADSVKGRFTISRDNAKNTVYLQMNSLKPEDTAVYYCATKYFSRMDYWGQGTQVTVSS | high polyreactivity
QVQLVESGGGLVQAGGSLRLSCAASGRIFGRYAMGWSRQAPGKERELVAAIRWSVGSTYYADSVKGRFTISRDNAKNTVYLQMNSLKPEDTAVYYCAADIRQSIMDYWGQGTQVTVSS | high polyreactivity
QVQLVESGGGLVQAGGSLRLSCAASGRIFGRYAMGWYRPAPGKERELVAAITYRTGRTYYADSVKGRFTISRDNAKNTVYLQMNSLKPEDTAVYYCDAESTSDPIDFEYWGQGTQVTVSS | low polyreactivity
QVQLVESGGGLVQAGGSLRLSCAASGRIFGRYAMGWYRQAPGKDRELVAAISSRGSRTYYADSVKGRFTISRDNAKNTVYLQMNSLKPEVTAVYYCAASWLSYPSDYDYWGQGTQVTVSS | high polyreactivity
QVQLVESGGGLVQAGGSLRLSCAASGRIFGRYAMGWYRQAPGKEREFVAAISKRGGGTYYADSVKGRFTISRDNAKNTVYLQMNSLKPEDTAVYYCAVDNSPGFDDYDYWGQGTQVTVSS | high polyreactivity
QVQLVESGGGLVQAGGSLRLSCAASGRIFGRYAMGWYRQAPGKERELVAVISSGGSTYYADSVKGRFTISRDNAKNTVYLQMNSLKPDDTAVYYCAAVIRGGYDYWGQGTQVTVSS | low polyreactivity
QVQLVESGGGLVQAGGSLRLSCAASGRIFGRYAMGWYRQAPGTERELVAAITSGGRTSYADSVKGRFTISRDNAKNTVDLQMNSLKPEDTAVYYCNVVSRNSIRFDYWGQGTQVTVSS | high polyreactivity
QVQLVESGGGLVQAGGSLRLSCAASGRIFGSYAMGWYRPAPGKERELVAGIRSVGSTNYADSVKGRFTISRDNAKNTVYLQMNSLKPEDTAVYYCAARLWHLSYAGQGGDYWGQGTQVTVSS | low polyreactivity
QVQLVESGGGLVQAGGSLRLSCAASGRIFGSYAMGWYRQAPGKERELVAAISWNGGSRYYADSVKGRFTISRDNAKNTVYLQMNSLKPEDTAVYYCAVVYRAYRSTAYLYGYWGQGTQVTVSS | high polyreactivity
QVQLVESGGGLVQAGGSLRLSCAASGRIFGSYAMGWYRQAPGKERELVAAITRGGSTNYADSVKGRFTISRDNAKNTVYFQMNSLKPEDTAVYYCARWVGLHYPYYYWGQGTQVTVSS | high polyreactivity
QVQLVESGGGLVQAGGSLRLSCAASGRIFGSYAMGWYRQAPGKERELVAAITTVGITYYADSVKGRFTISRDNAKNTVYLQMNSLKPEDTADYYCAAEYFDYPYWYDYWGQGTQVTVSS | high polyreactivity
QVQLVESGGGLVQAGGSLRLSCAASGRIFGSYAMGWYRQAPGKERELVAGIRSVGSTNYADSVKGRFTISRDNAKNTVYFQINSLKPEDTAVYYCAARLWHLSYAGQGGDYWGHGTQVTVSS | low polyreactivity
QVQLVESGGGLVQAGGSLRLSCAASGRIFGSYAMVWYRQVPGKERELVAASNWRGGSTFYADSVKGRFTISRDIAKNTVFLQMNSLKPDDNAVYYCSRRVYPQSCDNWGQGTQLTVSS | low polyreactivity
